Several values for one entry are separate records, joined by “and”; a condition that tells them apart may be missing. Equal entries are not always repeated. Where two headings read alike, the source gives them in different places.
Experiments:
Assay in all cases: cell-based or functional assay
[1] = target: HA of A/Victoria/3/75 (H3N2) (influenza A virus)
[2] = target: HA of A/Hong Kong/8/68 (H3N2) (influenza A virus)
[3] = target: HA of ca A/Japan/57 (H2N2) (influenza A virus)
[4] = target: HA of ca A/Hong Kong/213/03 (H5N1) (influenza A virus)
[5] = target: HA of ca A/Netherlands/219/03 (H7N7) (influenza A virus)
[6] = target: HA of A/Fort Monmouth/1/47 (H1N1) (influenza A virus)
[7] = target: HA of ca A/mallard/Alberta/89/85 (H6N2) (influenza A virus)
[8] = target: HA of ca A/Panama/2007/99 (H3N2) (influenza A virus)
[9] = target: HA of ca A/Anhui/1/13 (H7N9) (influenza A virus)
[10] = target: HA of ca A/teal/Hong Kong/W312/97 (H6N1) (influenza A virus)
[11] = target: HA of A/Victoria/361/11 (H3N2) (influenza A virus)
[12] = target: HA of ca A/Perth/16/09 (H3N2) (influenza A virus)
[13] = target: HA of ca A/swine/Missouri/06 (H2N3) (influenza A virus)
[14] = target: HA of ca A/Sydney/5/97 (H3N2) (influenza A virus)
[15] = target: T1, HA of ca A/Brit. Columbia/CN-6/04 (H7N3-LP) (influenza A virus)
[16] = target: HA of A/Wisconsin/67/05 (H3N2) (influenza A virus)
[17] = target: HA of A/Kawasaki/9/86 (H1N1) (influenza A virus)
[18] = target: T2, HA of ca A/chicken/Hong Kong/G9/97 (H9N2) (influenza A virus)
[19] = target: HA of ca A/Vietnam/1203/04 (H5N1) (influenza A virus)
[20] = target: HA of ca A/Beijing/262/95 (H1N1) (influenza A virus)
HA of virus H1-BS10 = target: HA of virus H1-BS10
[21] = target: HA of ca A/New Caledonia/20/99 (H1N1) (influenza A virus)
[22] = target: HA of ca A/Texas/36/91 (H1N1) (influenza A virus)
[23] = target: HA of A/New Jersey/8/76 (H1N1) (influenza A virus)
[24] = target: HA of A/Victoria/3/75 (H3N2) (influenza A virus); remark: listed apart in the source
[25] = target: HA of A/Hong Kong/8/68 (H3N2) (influenza A virus); remark: listed apart in the source
[26] = target: HA of ca A/Hong Kong/213/03 (H5N1) (influenza A virus); remark: listed apart in the source
[27] = target: HA of ca A/Netherlands/219/03 (H7N7) (influenza A virus); remark: listed apart in the source
[28] = target: HA of A/Fort Monmouth/1/47 (H1N1) (influenza A virus); remark: listed apart in the source
[29] = target: HA of ca A/Panama/2007/99 (H3N2) (influenza A virus); remark: listed apart in the source
[30] = target: HA of A/Wyoming/03/03 (H3N2) (influenza A virus)
[31] = target: HA of ca A/teal/Hong Kong/W312/97 (H6N1) (influenza A virus); remark: listed apart in the source
[32] = target: HA of ca A/Perth/16/09 (H3N2) (influenza A virus); remark: listed apart in the source
[33] = target: HA of ca A/swine/Missouri/06 (H2N3) (influenza A virus); remark: listed apart in the source
[34] = target: HA of ca A/Sydney/5/97 (H3N2) (influenza A virus); remark: listed apart in the source
[35] = target: T1, HA of ca A/Brit. Columbia/CN-6/04 …; remark: listed apart in the source
[36] = target: HA of A/Wisconsin/67/05 (H3N2) (influenza A virus); remark: listed apart in the source
[37] = target: HA of A/Kawasaki/9/86 (H1N1) (influenza A virus); remark: listed apart in the source
[38] = target: T2, HA of ca A/chicken/Hong Kong/G9/97 …; remark: listed apart in the source
[39] = target: HA of ca A/Vietnam/1203/04 (H5N1) (influenza A virus); remark: listed apart in the source
[40] = target: HA of ca A/Beijing/262/95 (H1N1) (influenza A virus); remark: listed apart in the source
[41] = target: HA of ca A/New Caledonia/20/99 (H1N1) (influenza A virus); remark: listed apart in the source
[42] = target: HA of ca A/Texas/36/91 (H1N1) (influenza A virus); remark: listed apart in the source
[43] = target: HA of A/New Jersey/8/76 (H1N1) (influenza A virus); remark: listed apart in the source
[44] = target: HA of swine-origin A/Minnesota/11/2010 H3N2 virus (influenza A virus)

B1: Antibody 3 (antibody, V domains shown)
VH: QVQLQESGPGLVKPSQTLSLTCAISGDSVSSNNAVWNWIRQSPSRGLEWLGRTYYRSKWYNDYAESVKSRITVNPDTSKNQFSLHLKSVTPEDTAVFYCVRSGHITVFGVNVDAFDMWGQGTMVTVSS
VL: DIQMTQSPSSLSASVGDRVTITCRTSQSLSSYLHWYQQKPGKAPKLLIYAASSLQSGVPSRFSGSGSGTDFTLTISSLQPEDFATYYCQQSRTFGQGTKVEIK
[1]
  Neutralization IC50, H3-Vic75: 1.12 µg/mL
[2]
  Neutralization IC50, H3-HK68: 1.37 µg/mL
[3]
  Neutralization IC50, H2-JP57: 0.46 µg/mL
[4]
  Neutralization IC50, H5-HK03: 0.71 µg/mL
[5]
  Neutralization IC50, H7-NLD03: 4.74 µg/mL
[6]
  Neutralization IC50, H1-FM47: 1.04 µg/mL
[7]
  Neutralization IC50, H6-AB85: 0.69 µg/mL
[8]
  Neutralization IC50, H3-Pa99: 9 µg/mL
[9]
  Neutralization IC50, H7-ANU13: 4.26 µg/mL
[10]
  Neutralization IC50, H6-HK97: 0.63 µg/mL
[11]
  Neutralization IC50, H3-VC11: 3.4 µg/mL
[12]
  Neutralization IC50, H3-Perth09: 1.3 µg/mL
[13]
  Neutralization IC50, H2-MO06: 1.09 µg/mL
[14]
  Neutralization IC50, H3-Syd97: 6.5 µg/mL
[15]
  Neutralization IC50, H7-BC04: 2.95 µg/mL
[16]
  Neutralization IC50, H3-WI05: 2.62 µg/mL
[17]
  Neutralization IC50, H1-Kaw86: 1.01 µg/mL
[18]
  Neutralization IC50, H9-HK97: 1.18 µg/mL
[19]
  Neutralization IC50, H5-VM04: 1.19 µg/mL
[20]
  Neutralization IC50, H1-BJ95: 2.98 µg/mL
HA of virus H1-BS10
  Neutralization IC50, H1-BS10: 2.16 µg/mL
[21]
  Neutralization IC50, H1-Ncal99: 1.16 µg/mL
[22]
  Neutralization IC50, H1-TX91: 0.92 µg/mL
[23]
  Neutralization IC50, H1-NJ76: 0.57 µg/mL
[24]
  Neutralization IC50, H3-Vic75: 0.75 µg/mL
[25]
  Neutralization IC50, H3-HK68: 0.68 µg/mL
[26]
  Neutralization IC50, H5-HK03: 4.64 µg/mL
[27]
  Neutralization IC50, H7-NLD03: 4.78 µg/mL
[28]
  Neutralization IC50, H1-FM47: 0.92 µg/mL
[29]
  Neutralization IC50, H3-Pa99: 17.7 µg/mL
[30]
  Neutralization IC50, H3-Wy03: 0.63 µg/mL
[31]
  Neutralization IC50, H6-HK97: 1.77 µg/mL
[32]
  Neutralization IC50, H3-Perth09: 1.49 µg/mL
[33]
  Neutralization IC50, H2-MO06: 2.27 µg/mL
[34]
  Neutralization IC50, H3-Syd97: 3.75 µg/mL
[35]
  Neutralization IC50, H7-BC04: 4.72 µg/mL
[36]
  Neutralization IC50, H3-WI05: 2.44 µg/mL
[37]
  Neutralization IC50, H1-Kaw86: 0.58 µg/mL
[38]
  Neutralization IC50, H9-HK97: 1.79 µg/mL
[39]
  Neutralization IC50, H5-VM04: 2.11 µg/mL
[40]
  Neutralization IC50, H1-BJ95: 3.41 µg/mL
[41]
  Neutralization IC50, H1-Ncal99: 0.79 µg/mL
[42]
  Neutralization IC50, H1-TX91: 0.6 µg/mL
[43]
  Neutralization IC50, H1-NJ76: 1.41 µg/mL
[44]
  Neutralizing activity IC50, swine-origin A/Minnesota/11/2010: 2.2 µg/mL and 4.2 µg/mL

From patent US20160257732A1 (published 2016)
